Source: the nanobody polyreactivity screen of Harvey et al. (2022)

Test: yeast display, Sf9 membrane polyspecificity reagent, FACS + sequencing; frameworks hold sequencing errors
Outline: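 Galactose induction of a Saccharomyces cerevisiae BJ5465 synthetic nanobody display library ran 36–48 hours. The cells were then stained for 1 hour at 4 °C with 10% biotinylated, detergent-solubilized Sf9 membrane reagent, pulled down on streptavidin microbeads and FACS-sorted into low and high (top ~1%) gates on expression and reagent-binding fluorescence. Labels for polyreactivity follow the gate of origin.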

Sequence	polyreactivity (PSR sort gate)
QVQLVESGGGLVQAGGSLRLSCAASGSIFTFYAMGWYRQAPGKERELVAAISWSGGSTYYADSVKGRFTISRDNAKNTVYLQMNSLKPEDTAVYYCAARYYVYSSRAQYHHYDYWGQGTQVTVSS	high polyreactivity
QVQLVESGGGLVQAGGSLRLSCAASGRIFGYYAMGWYRPAPGKERELVAGITSGGITNYADSVKGRFTISRDNAKNTVYLQMNSLKPEDTAVYYCAARSGYYYRVKFYYWGQGTQVSVSS	high polyreactivity
QVQLVESGGGLVQAGGSLRLSCAASGRTFYEYAMGWYRQAPGKERELVAAITRSGGSTYYADSVKGRFTISRDNAKNTVYLQMNSLKPEDTAVYYCAADGIKGGVEYDYWGQGTQVTVSS	high polyreactivity
QVQLVESGGGLVQAGGSLRLSCAASGSINYYAMGWYRQAPGKERELVAAITGSGGSTYYADSVKGRFTISRDNAKNTVYLQMNSLKPEDTAVYYCAARYGYIYGPYYYWGQGTQVTVSS	high polyreactivity
QVQLGESGGGLVQAGGSLRLSCAASGSIFRYYAMGLYRQAPGKERELVAAISGSGGITRYADSVKGRFTISRDNAKNTVYLLMNSLKPEDTAVYYCATRPGTRPAYDYWGQGTQVTVSS	high polyreactivity
QVQLVESGGGLVQAGGSLRLSCAASGIIFWDYAMGWYSQAPGKERELVAAISSSGSTTYYADSVKGRFTISRDNAKNTVYLQMNSLKPEDTAVYYCAAESLYEDDKGDYWGQGTQVTVSS	high polyreactivity
QVQLVESGGGLVQAGGSLRLSCAASGSIFYRNAMGWYRQAPGKERELVAAISWSGSRTYYADSVKGRFTISRDNAKNTVYLQMNSLKPEDTAVYYCNRQYNQWIHYYYRMDYWGQGTQVTVSS	high polyreactivity
QVQLVESGGGLVQAGGSLRLSCAASGFIFGTNAMGWYRQAPGKERELVASISSTGGSTYYADSVKGRFTISRDNAKNTVYLQMNSLKPEDTAVYYCAADPYPEYIRYLPGVDYWGQGSQVTVSS	low polyreactivity
QVQLVESGGGLVQAGGRHRLSCAASGSIFTVYTIGWYRQAPGKEREFVAAINSRGGTTYYADSVKGRFTISRDNAKNTVYLQMNSLKPEDTAVYYCAAKQRPKSYGPGHYYWGQGTQVTVSS	high polyreactivity
QLQLVESGGGLVQAGGSLRLSCAPSGRILWVNAMGWYRQAPGKERELVAAISLSGGRTYYADSVKGRFTISRDNAKNTVYLQMNSLKPEDTAVYYCAARTVNYYYTTGDYWGQGTQVTVSS	low polyreactivity
QVQLVESGGGLVQAGGSLRLSSAASGSIFSRYAMGWYRQAPGIERELVAAITWSGGSTYYADSVKGRFTISRDNAKNTVYLQMNSLKPEDTAVYYCAAFGYAPYNHRYDYWGQGTQVTVSS	low polyreactivity
QVQLVESGGGLVQAGGSLRLSCAASGFTIGDNAMGWSRQAPGKERELVAAITWSGGSTYYADSVKGRFTISRDNAKNTVYLQMNSLKPEDTAVYYCAADKLRELDYWGQGTEVTVSS	low polyreactivity
QVQLVESGGGLVQAGGSLRLSCAASGIIFGTYDMGWNRQAPGKERELVAANTSGTSTNYADSVKGRFTISRDNAMNTVYLQMNSLKPEDTAVYYCAADVYLYYPYFGHRRYNYWGQGTQVTVSS	high polyreactivity
QVQLVESGGGLVQAGGSLRLSCAASGSTFVGNVMGWYRQAPGKERELVATISRSGGRTYYADSVKGRFTISRDNAKNTVYLQMNSLKPVDTAVYYCAAGFVYTTASRWGGRTRYDYWGQGTQVTVSS	high polyreactivity
QVQLVYSGGGLVQAGGSLRLSCAASGISFSQYAMGWYRQAPGKERELVASISSGGRTNYADSVKGRFTISRDNAKNTVYLQLNSLTPEDTAVYYCAAEQWGWYWYDYWGQGTQVTVSS	high polyreactivity
QVQLVESGGGLVHAGGSLRLSCSASGRTFRHYAMGWYRQAPGKEREMVAVISWRGTGTYYADSVKGRFTISRDNAKNTVYLQMNSLKPEDTAVYYCATVWGLGYRMNYWGQGTQVTVSS	high polyreactivity
QVQLVESGGGLVQAGGSLRLSCAASGRTFSGYAMGWYRQAPGKERELVAAIDRGDGTNYADSVKGRYTISRDNAKNTVYLQMNSQIPEDTAVYYCAGDYSDGSTSLTYTGFVYWGQGTQVTVSS	low polyreactivity
QVQLVESGGGLVQAGGSLRLSCAASGNTFPVYAMGWYRKASGKERELVATITSGGSTNYADSVKGRFTFSRDNAKNTVYLQMNSLKPEDTAVYYCARRAVYSKRRYDYWGHGTQVTVSS	low polyreactivity
QVQLVESGGGLVQAGGSLRLSCAASGRTFPYYAKGWYRQAPGKERELVAAISKRGGNTYYADSVKGRFTISRDNAKNTVYLQLNSLIPEVTAVYYCNALSSTEYDYWGQGTQVTVSS	high polyreactivity
QVQLGESGGGLVQAGGSLRLSCAASGRNFENNAMGWYRQAPGKERELVASIRGGGSTNYADSVKGRFTISRDNAKNTVYVQMNSLKPEDTAVYYCNADYWWSYVRFDYWGQGTQVTVSS	low polyreactivity
QVQLVESGGGLVQAGGSLRLSCAASGFTFPYYAMGWYRQAPGKERELVARISSGGSTNYADSVKGRFTISRDNAMNTVYLEMNSLKPEDTAVYYCNKGWYYRPRFYSSSDYWGQGTQVTVSS	high polyreactivity
QVQLEESGGGLVQAGGSLRLSCAASGSIFVGYAMGWYRQAPGKEREFVAAINYRGGSTFYADSVKGRFTISRDNAKNTVYLQMNSLKPEDTAVYYCAARYSGNRGVPKGYRYNYWGQGTQVTVSS	low polyreactivity

Sequence	polyreactivity (PSR sort gate)
QVQLVESGGGLVQAGGSLRLSCAASGRIFRFYAMGWYRPAPGKERELVAAISWNGGRTYYAVSVKGRFTISRDNAKNTVYLQMNSLKPEVTAVYYCATEFYYHWYSPFDYWGQGTQVTVSS	high polyreactivity
QVQLVESGGGLVQAGGSLRLSCAASGSTFFRYAMGLYRQAPGKERELVAAISWSGGTTYYADSVKGRFTISRDNAQNTVYLQMYSLKPEDTAVYYCNAVRQGHILDYWGQGTQVTVSS	low polyreactivity
QVQLVESGGGLVQAGGSLRLSCAASGSIFNYYAMGWNRQAPVKETEFVADISGSGSSTYYADSVKGRFTISRDNAKNTVYLQMNSLKPEDTAVYYCIAEYYWGVGYYPYSDYGYWGQGTQVTVSS	low polyreactivity
QLQLVETGGGLVQAGGSLRLSCAASGFTLYSYAMGWYRQDPGKEREFVADGSTYYADSVKGRFTISRDNAKNTVYLQINSLKPEDTAVYYCAADPWIYVQSYGYWGQGTQVTVSS	low polyreactivity
QVQLVESGGGLVQAGGSLRLSCAASGITFGRYAMGWYRQAPGKERELVAAISWSGGSTYYADSVKGRFTLSRDNAKNTVYLQMNSLKPEDTAVYYCAVEWYYTSYHIRFYRDNYWGQGTQVTVSS	high polyreactivity
QVQLVESGGGLVQAGGSLRLSCAASGNTFSYYAMGWYRQAPGKEREFVAAIRKSGASTYYADSVKGRFTISRDNAKNTVYLQMNSLKPEDTAVYYCAADGQVSYALGFDYWGQGTQVTVSS	high polyreactivity
QVQLVESGGGLVQAGGSLRLICAASGRTFYYYAMGWDRQAPGKERELVASISYSAGRTYADSVKGRFTISRDNAKNTVYLLMNSLKPEDTAVYYCAAALYVNPYNYGTARWYYYWGQGTQVTVSS	high polyreactivity
QVQLVESGGGLVQAGGSLRISCAASGNIFPYYAMGWYRQAPGKERELVATITRGGRTNYADSVKGRFTISRDNAKNTVYLQMNSLKPEDTAVYYCASYSYTLTYRFDYWGQGTQVTVSS	low polyreactivity
QVQLVESGGGLVQAGGSLRLSCAASGYTIFFNVMGGYRQAPGKERELVAAISYSGGSTNYADSVKGRFTISRDNAKNTVYLQMNSLKPEDTAVYYCNTVRSPPGHVYWGEGTQVTVSS	low polyreactivity
QVQLVESGGGLDQAGGSLRLSCAPSGSIFKRNAMGWYRQAPGKARELVAAISKSSGSTYYADSVKGRFTISRDNAKNTVYLQMNSLKPEDYAVYYCAAKYYSYVDKYYYWGQGTQVTVSS	high polyreactivity
QVQLVESGGGLVQAGGSLRLSCAASGSTFIYYAMGWYRQAPGKEREFVAAISYRGGSTYYADSVKGRFTISRDNAKYTVYLQMNSLKPEDTAVYYCAASYRSWWETYLRGDYWGQGTQVTVSS	high polyreactivity
QVQLVESGGGLVQAGGSLRLSCAASGTIFKSNSMGWYRQAPGKERELVAAISNGGITNYADSVKGRFTISRDNAKNTVYLQMNSLKPEDTAVYYCATSDVREIWVDYWGQGTQVTVSS	low polyreactivity
QVQLVESGGGLVQAGGSLRLSCAASGRIFGAYAMGWYRQAPGKERELVAAITSRGGNTYYADSVKGRFTISRDNAKNTVYFQMNSLKPEDTAVYYWAARHDKRRQYYVGQSAFDYWGQGTQVTVSS	low polyreactivity
QVPLEESGGGLVQAGGSLRLSCAASGFIIGLNAMGWYRQAPGKERELVAVITFSGGSTYYADSVKGRFTISRDNAKNTVFFQMNSLKPEDTAVYYCAARYYWYSVGYGYWGQGTQVTVSS	high polyreactivity
QVQHVESVGGLVQAGGSLRLSCASSASIFRPNAMGWYRQAPGKDRELVAAITWSGDSTYYADSVKGRFTISRDNAKNTVYLQMNSLKPEDTAVYYCAADFTYQGSSPNYYWGQGTQVTVSS	low polyreactivity
QVQLVESGGGLVQAGGSLRLSCAASGRTFPGYAMGWYREAPGKERELVAAISSSGGSTYYADSVKGRFTISRDNAKNTVYFQMNSLKPEVTAVYSCAVPYWYGRGHCYWGQGTQVTVSS	low polyreactivity
QVQLVESGGGLVQAGGSLRLSCAASGRILWYNAMGWYRQAPGKERELVAAITSDGSTDYADSVKGRFTISRDNAKNTVYLQMNSLKPEDTAVYYCAKLYIRQYPTWYRYYYWGQGTQVTVSS	high polyreactivity
QVQLVESGGGLVQAGGSLSLSCAASGRTFIRNAMGWYRQAPGKERELVAAINSGGITNYADSVKGRFTISRDNAKNTVYLQMNSLKPEDTAVYYCNARQVLFGLYLRAYPFEYWGQGTQVTVSS	low polyreactivity
QVQLVESGGGLVQAGGSLRLSCAASGFTFAYNAMGWYRQAPGKETELVAAINSGGGRTYYADSVKGRFTISRDNAKNTVYLQMNSLKPEATAVYYCNAYPYKLDYDYWGQGTQVTVSS	high polyreactivity
QVQLVESGGGLVQAGGSLRLSCAASGRTIGKNAMGWYRQAPGKERELVAAISWRGGSTRYADSVKGRFTISRDNAKNTVYLQMNSLKPEDTAVYYCAVRFLTYWHGSYWYDYWGQGTQVTVSS	high polyreactivity
QVQLVESGAGLVQAGGRLRLSCAASGRIFDGYAMGWYRQAPGKERELVAAITASGGSTYYADSVKGRFTISRDNAKITVYLQMNSLKPEDTAVYYCAVDYSYWVEYWGQGTQVTVSS	high polyreactivity
